# In PMC5309860 (2017):
# B1: His-β-arrestin-1-WT [not stated] / GST-PLCγ-SH3 [human] (parent complex)
# chain 1: MGDKGTRVFKKASPNGKLTVYLGKRDFVDHIDLVDPVDGVVLVDPEYLKERRVYVTLTCAFRYGREDLDVLGLTFRKDLFVANVQSFPPAPEDKKPLTRLQERLIKKLGEHAYPFTFEIPPNLPCSVTLQPGPEDTGKACGVDYEVKAFCAENLEEKIHKRNSVRLVIRKVQYAPERPGPQPTAETTRQFLMSDKPLHLEASLDKEIYYHGEPISVNVHVTNNTNKTVKKIKISVRQYADICLFNTAQYKCPVAMEEADDTVAPSSTFCKVYTLTPFLANNREKRGLALDGKLKHEDTNLASSTLLREGANREILGIIVSYKVKVKLVVSRGGLLGDLASSDVAVELPFTLMHPKPKEEPPHREVPENETPVDTNLIELDTNDDDIVFEDFARQRLKGMKDDKEEEEDGTGSPQLNNR
# chain 2: TFKCAVKALFDYKAQREDELTFIKSAIIQNVEKQEGGWWRGDYGGKKQLWFPSNYVEEMVN
# Variants of: B1
# Experiment: GST pull down assay (quantified western blot); 5 μM GST-PLCγ-SH3, 5 μM β-arrestin-1, with GRK6pp; parent: 2.5; read off a plot
row,screen value,Variant
1,~2.6 fold,chain 1 MGDKGTRVFKKASPNGKLTVYLGKRDFVDHIDLVDPVDGVVLVDPEYLKERRVYVTLTCAFRYGREDLDVLGLTFRKDLFVANVQSFPPAPEDKKPLTRLQERLIKKLGEHAYPFTFEIPPNLPCSVTLQPGPEDTGKACGVDYEVKAFCAENLEEKIHKRNSVRLVIRKVQYAPERPGAQPTAETTRQFLMSDKPLHLEASLDKEIYYHGEPISVNVHVTNNTNKTVKKIKISVRQYADICLFNTAQYKCPVAMEEADDTVAPSSTFCKVYTLTPFLANNREKRGLALDGKLKHEDTNLASSTLLREGANREILGIIVSYKVKVKLVVSRGGLLGDLASSDVAVELPFTLMHPKPKEEPPHREVPENETPVDTNLIELDTNDDDIVFEDFARQRLKGMKDDKEEEEDGTGSPQLNNR [chain 1 P180A]
2,~1.1 fold,"chain 1 MGDKGTRVFKKASPNGKLTVYLGKRDFVDHIDLVDPVDGVVLVDPEYLKERRVYVTLTCAFRYGREDLDVLGLTFRKDLFVANVQSFAAAAEDKKPLTRLQERLIKKLGEHAYPFTFEIPPNLPCSVTLQPGPEDTGKACGVDYEVKAFCAENLEEKIHKRNSVRLVIRKVQYAPERPGPQPTAETTRQFLMSDKPLHLEASLDKEIYYHGEPISVNVHVTNNTNKTVKKIKISVRQYADICLFNTAQYKCPVAMEEADDTVAPSSTFCKVYTLTPFLANNREKRGLALDGKLKHEDTNLASSTLLREGANREILGIIVSYKVKVKLVVSRGGLLGDLASSDVAVELPFTLMHPKPKEEPPHREVPENETPVDTNLIELDTNDDDIVFEDFARQRLKGMKDDKEEEEDGTGSPQLNNR [chain 1 P88A, chain 1 P89A, chain 1 P91A]"
3,~2.7 fold,chain 1 MGDKGTRVFKKASPNGKLTVYLGKRDFVDHIDLVDPVDGVVLVDPEYLKERRVYVTLTCAFRYGREDLDVLGLTFRKDLFVANVQSFPPAPEDKKPLTRLQERLIKKLGEHAYPFTFEIPANLPCSVTLQPGPEDTGKACGVDYEVKAFCAENLEEKIHKRNSVRLVIRKVQYAPERPGPQPTAETTRQFLMSDKPLHLEASLDKEIYYHGEPISVNVHVTNNTNKTVKKIKISVRQYADICLFNTAQYKCPVAMEEADDTVAPSSTFCKVYTLTPFLANNREKRGLALDGKLKHEDTNLASSTLLREGANREILGIIVSYKVKVKLVVSRGGLLGDLASSDVAVELPFTLMHPKPKEEPPHREVPENETPVDTNLIELDTNDDDIVFEDFARQRLKGMKDDKEEEEDGTGSPQLNNR [chain 1 P121A]

# Variants of: B1
# Experiment: GST pull down assay (quantified western blot); 5 μM GST-PLCγ-SH3, 5 μM β-arrestin-1, without GRK6pp; parent: 1; read off a plot
row,screen value,Variant
1,~1.2 fold,chain 1 MGDKGTRVFKKASPNGKLTVYLGKRDFVDHIDLVDPVDGVVLVDPEYLKERRVYVTLTCAFRYGREDLDVLGLTFRKDLFVANVQSFPPAPEDKKPLTRLQERLIKKLGEHAYPFTFEIPPNLPCSVTLQPGPEDTGKACGVDYEVKAFCAENLEEKIHKRNSVRLVIRKVQYAPERPGAQPTAETTRQFLMSDKPLHLEASLDKEIYYHGEPISVNVHVTNNTNKTVKKIKISVRQYADICLFNTAQYKCPVAMEEADDTVAPSSTFCKVYTLTPFLANNREKRGLALDGKLKHEDTNLASSTLLREGANREILGIIVSYKVKVKLVVSRGGLLGDLASSDVAVELPFTLMHPKPKEEPPHREVPENETPVDTNLIELDTNDDDIVFEDFARQRLKGMKDDKEEEEDGTGSPQLNNR [chain 1 P180A]
2,~1.1 fold,"chain 1 MGDKGTRVFKKASPNGKLTVYLGKRDFVDHIDLVDPVDGVVLVDPEYLKERRVYVTLTCAFRYGREDLDVLGLTFRKDLFVANVQSFAAAAEDKKPLTRLQERLIKKLGEHAYPFTFEIPPNLPCSVTLQPGPEDTGKACGVDYEVKAFCAENLEEKIHKRNSVRLVIRKVQYAPERPGPQPTAETTRQFLMSDKPLHLEASLDKEIYYHGEPISVNVHVTNNTNKTVKKIKISVRQYADICLFNTAQYKCPVAMEEADDTVAPSSTFCKVYTLTPFLANNREKRGLALDGKLKHEDTNLASSTLLREGANREILGIIVSYKVKVKLVVSRGGLLGDLASSDVAVELPFTLMHPKPKEEPPHREVPENETPVDTNLIELDTNDDDIVFEDFARQRLKGMKDDKEEEEDGTGSPQLNNR [chain 1 P88A, chain 1 P89A, chain 1 P91A]"
3,~1.1 fold,chain 1 MGDKGTRVFKKASPNGKLTVYLGKRDFVDHIDLVDPVDGVVLVDPEYLKERRVYVTLTCAFRYGREDLDVLGLTFRKDLFVANVQSFPPAPEDKKPLTRLQERLIKKLGEHAYPFTFEIPANLPCSVTLQPGPEDTGKACGVDYEVKAFCAENLEEKIHKRNSVRLVIRKVQYAPERPGPQPTAETTRQFLMSDKPLHLEASLDKEIYYHGEPISVNVHVTNNTNKTVKKIKISVRQYADICLFNTAQYKCPVAMEEADDTVAPSSTFCKVYTLTPFLANNREKRGLALDGKLKHEDTNLASSTLLREGANREILGIIVSYKVKVKLVVSRGGLLGDLASSDVAVELPFTLMHPKPKEEPPHREVPENETPVDTNLIELDTNDDDIVFEDFARQRLKGMKDDKEEEEDGTGSPQLNNR [chain 1 P121A]
